According to patent US20220033515A1 (Genentech, published 2022):

T1: hVEGF109 (human, UniProt P15692 214-315)
T1 construct: range 8-109; also called VEGF (8-109)
T1 sequence (looked up): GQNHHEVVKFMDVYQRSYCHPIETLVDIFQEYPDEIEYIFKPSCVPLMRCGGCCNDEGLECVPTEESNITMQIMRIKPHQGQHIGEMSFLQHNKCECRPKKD


Assays:
[1] = target: T2, HER2 extracellular domain (Her2-ECD) (human, UniProt P04626 23-652); assay: single-spot competitive phage ELISA
T2 construct: extracellular domain; also called hHER2 extracellular domain (ECD)

[2] = target: T1, hVEGF109; assay: single-spot competitive phage ELISA
[3] = target: T2, HER2 extracellular domain (Her2-ECD); assay: equilibrium KD; method and format (Fab or IgG) not given; HER2, second number of the cell
[4] = target: T1, hVEGF109; assay: Biacore SPR
[5] = target: T2, HER2 extracellular domain (Her2-ECD); assay: Biacore SPR
[6] = target: T2, HER2 extracellular domain (Her2-ECD); assay: competition ELISA of phage-displayed Fab

Row | Binder | OD450 without competitor [1] | IC50 [6] [nM] | also measured
1 | 3-3 (scFv, V domains shown, also called c3-3) VH: not shown VL: DIQMTQSPSSLSASVGDRVTITCRASQQIWRHLAWYQQKPGKAPKLLIYTGSSLYSGVPSRFSGSGSGTDFTLTISSLQPEDFATYYCQQSYWVAPPTFGQGTKVEIK | 0.05 |  | 
2 | clone 6 (scFv, V domains shown) VH: not shown VL: DIQMTQSPSSLSASVGDRVTITCRASQDIWRAVAWYQQKPGKAPKLLIYPASNLYSGVPSRFSGSGSGTDFTLTISSLQPEDFATYYCQQGYYIAPPTFGQGTKVEIK | 0.04 |  | % signal, SSC +/- 50 or 100nM VEGF [2]: 85.6%; OD450 without competitor [2]: 2.12
3 | H6 (scFv, V domains shown) VH: not shown VL: DIQMTQSPSSLSASVGDRVTITCRASQYIWNYVAWYQQKPGKAPKLLIYGGSSLYSGVPSRFSGSGSGTDFTLTISSLQPEDFATYYCQQSWWAGPPTFGQGTKVEIK | 0.05 |  | 
4 | clone 12 (scFv, V domains shown) VH: not shown VL: DIQMTQSPSSLSASVGDRVTITCRASQDIGGGSVAWYQQKPGKAPKLLIYWGSFLYSGVPSRFSGSGSGTDFTLTISSLQPEDFATYYCQQHYTTPPTFGQGTKVEIK | 0.04 |  | % signal, SSC +/- 50 or 100nM VEGF [2]: 81.3%; OD450 without competitor [2]: 2.23
5 | clone 27 (scFv, V domains shown) VH: not shown VL: DIQMTQSPSSLSASVGDRVTITCRASQYVYSTTVAWYQQKPGKAPKLLIYNGSSLYSGVPSRFSGSGSGTDFTLTISSLQPEDFATYYCQQASSAPPTFGQGTKVEIK | 0.04 |  | % signal, SSC +/- 50 or 100nM VEGF [2]: 95.7%; OD450 without competitor [2]: 2.82
6 | clone 45 (scFv, V domains shown) VH: not shown VL: DIQMTQSPSSLSASVGDRVTITCRASQDIHSGSVAWYQQKPGKAPKLLIYWGSYLYSGVPSRFSGSGSGTDFTLTISSLQPEDFATYYCQQHYTTPPTFGQGTKVEIK | 0.05 |  | % signal, SSC +/- 50 or 100nM VEGF [2]: 88.2%; OD450 without competitor [2]: 3.08
7 | clone 75 (scFv, V domains shown) VH: not shown VL: DIQMTQSPSSLSASVGDRVTITCRASQDIPSIYVAWYQQKPGKAPKLLIYGASYLYSGVPSRFSGSGSGTDFTLTISSLQPEDFATYYCQQRYWVAPPTFGQGTKVEIK | 0.07 |  | % signal, SSC +/- 50 or 100nM VEGF [2]: 85.1%; OD450 without competitor [2]: 2.9
8 | bH4 (antibody, V domains shown) VH: not shown VL: DIQMTQSPSSLSASVGDRVTITCRASQDIRSGSVAWYQQKPGKAPKLLIYWGSYLYSGVPSRFSGSGSGTDFTLTISSLQPEDFATYYCQQHYTTPPTFGQGTKVEIKR |  |  | Kd [3]: 11 nM
9 | H3 Fab (Fab, V domains shown, also called bH3 Fab) VH: not shown VL: DIQMTQSPSSLSASVGDRVTITCRASQDIGLGSVAWYQQKPGKAPKLLIYWASYLYSGVPSRFSGSGSGTDFTLTISSLQPEDFATYYCQQHYTTPPTFGQGTKVEIKR |  |  | Kd [4]: 3930 nM; Kd [5]: 8 nM
10 | clone 67 (lower block) (scFv, V domains shown) VH: not shown VL: DIQMTQSPSSLSASVGDRVTITCRASQDIWRWLAWYQQKPGKAPKLLIYAGSSLYSGVPSRFSGSGSGTDFTLTISSLQPEDFATYYCQQHDQAPPTFGQGTKVEIK | 0.05 |  | % signal, SSC +/- 50 or 100nM VEGF [2]: 85.8%; OD450 without competitor [2]: 1.05
11 | 20.49 (Fab, V domains shown) VH: not shown VL: DIQMTQSPSSLSASVGDRVTITCRASVDLPKSVSGYVAWYQQKPGKAPKLLIYWGSFLYSGVPSRFSGSGSGTDFTLTISSLQPEDFATYYCQQHFTSPPTFGQGTKVEIKR |  | 2.6 | 
12 | bH1 Fab (Fab, V domains shown, also called bispecific bH1 Fab) VH: not shown VL: DIQMTQSPSSLSASVGDRVTITCRASQDIPRSISGYVAWYQQKPGKAPKLLIYWGSYLYSGVPSRFSGSGSGTDFTLTISSLQPEDFATYYCQQHYTTPPTFGQGTKVEIKR |  | 2.1 | Kd [5]: 59 nM
13 | 35.2 (Fab, V domains shown) VH: not shown VL: DIQMTQSPSSLSASVGDRVTITCRAIEDLPKTVSGYVAWYQQKPGKAPKLLIYWGSFLYSGVPSRFSGSGSGTDFTLTISSLQPEDFATYYCQQHYSSPPTFGQGTKVEIKR |  | 3.5 | 
14 | 35.87 (Fab, V domains shown) VH: not shown VL: DIQMTQSPSSLSASVGDRVTITCRASQNIPKSVSGYVAWYQQKPGKAPKLLIYWGSFLYSGVPSRFSGSGSGTDFTLTISSLQPEDFATYYCQQHFNSPPTFGQGTKVEIKR |  | 2.2 | 
15 | 35.61 (Fab, V domains shown) VH: not shown VL: DIQMTQSPSSLSASVGDRVTITCRAIENLPKSITGYVAWYQQKPGKAPKLLIYWGSFLYSGVPSRFSGSGSGTDFTLTISSLQPEDFATYYCQQHYSTTPKFGQGTKVEIKR |  | 7.1 | 
16 | 35.56 (Fab, V domains shown) VH: not shown VL: DIQMTQSPSSLSASVGDRVTITCRAVQNLPKTITGYVAWYQQKPGKAPKLLIYWGSFLYSGVPSRFSGSGSGTDFTLTISSLQPEDFATYYCQQHYTIPPKFGQGTKVEIKR |  | 1.7 | 
17 | 35.28 (Fab, V domains shown) VH: not shown VL: DIQMTQSPSSLSASVGDRVTITCRAIQNIAKTITGYVAWYQQKPGKAPKLLIYWGSFLYSGVPSRFSGSGSGTDFTLTISSLQPEDFATYYCQQHFNSPPKFGQGTKVEIKR |  | 0.6 | 
18 | 20.93 (Fab, V domains shown) VH: not shown VL: DIQMTQSPSSLSASVGDRVTITCRAVEDLPKTITGYVAWYQQKPGKAPKLLIYWGSFLYSGVPSRFSGSGSGTDFTLTISSLQPEDFATYYCQQHFTTPPKFGQGTKVEIKR |  | 3.8 | 
19 | 20.52 (Fab, V domains shown) VH: not shown VL: DIQMTQSPSSLSASVGDRVTITCRAIENLPKTISGYVAWYQQKPGKAPKLLIYWGSFLYSGVPSRFSGSGSGTDFTLTISSLQPEDFATYYCQQHFSSPPTFGQGTKVEIKR |  | 3.1 | 
20 | 35.74 (Fab, V domains shown) VH: not shown VL: DIQMTQSPSSLSASVGDRVTITCRAIQDIPKTITGYVAWYQQKPGKAPKLLIYWGSFLYSGVPSRFSGSGSGTDFTLTISSLQPEDFATYYCQQHFNSPPKFGQGTKVEIKR |  | 0.7 | 
21 | 35.21 (Fab, V domains shown) VH: not shown VL: DIQMTQSPSSLSASVGDRVTITCRASQDLPKSISGYVAWYQQKPGKAPKLLIYWGSFLYSGVPSRFSGSGSGTDFTLTISSLQPEDFATYYCQQHFSSPPTFGQGTKVEIKR |  | 1.4 | 
22 | 35.25 (Fab, V domains shown) VH: not shown VL: DIQMTQSPSSLSASVGDRVTITCRAIQKVPRTITGYVAWYQQKPGKAPKLLIYWGSFLYSGVPSRFSGSGSGTDFTLTISSLQPEDFATYYCQQHYTSPPTFGQGTKVEIKR |  | 0.4 | 
23 | 35.45 (Fab, V domains shown) VH: not shown VL: DIQMTQSPSSLSASVGDRVTITCRASEDIPKTVSGYVAWYQQKPGKAPKLLIYWGSFLYSGVPSRFSGSGSGTDFTLTISSLQPEDFATYYCQQHFSSPPTFGQGTKVEIKR |  | 1.1 | 
24 | 20.80 (Fab, V domains shown) VH: not shown VL: DIQMTQSPSSLSASVGDRVTITCRASEDIPKSISGYVAWYQQKPGKAPKLLIYWGSFLYSGVPSRFSGSGSGTDFTLTISSLQPEDFATYYCQQHFSSPPTFGQGTKVEIKR |  | 2.2 | 
25 | 35.95 (Fab, V domains shown) VH: not shown VL: DIQMTQSPSSLSASVGDRVTITCRAIENLPKSVSGYVAWYQQKPGKAPKLLIYWGSFLYSGVPSRFSGSGSGTDFTLTISSLQPEDFATYYCQQHYTSPPTFGQGTKVEIKR |  | 4.3 | 
